From the Immune Epitope Database (IEDB)

How the values were obtained:
HLA-A*01:01 = test: IEDB peptide-MHC binding, purified MHC/direct/fluorescence; filed as Kd, often an IC50 or EC50 that approximates it; ≥ and ≤ were set here for values at or beyond the usual limits of such assays
HLA-A*02:01 = test: as above
HLA-A*02:03 = test: as above; conditions: source organism: Influenza A virus (A/Taiwan/2/2006(H1N1))
HLA-A*02:11 = test: as above; conditions: source organism: Influenza A virus (A/Taiwan/2/2006(H1N1))
HLA-A*02:12 = test: as above; conditions: source organism: Influenza A virus (A/Taiwan/2/2006(H1N1))
HLA-A*02:19 = test: as above; conditions: source organism: Influenza A virus (A/Taiwan/2/2006(H1N1))
HLA-A*03:01 = test: as above
HLA-A*11:01 = test: as above
HLA-A*23:01 = test: as above; conditions: source organism: Influenza A virus (A/Hong Kong/213/2003(H5N1))
HLA-A*24:02 = test: as above; conditions: source organism: Influenza A virus (A/Hong Kong/213/2003(H5N1))
HLA-A*24:03 = test: as above; conditions: source organism: Influenza A virus (A/Hong Kong/213/2003(H5N1))
HLA-A*26:02 [1] = test: as above; conditions: source organism: Influenza A virus (A/Taiwan/2/2006(H1N1))
HLA-A*26:03 [2] = test: as above; conditions: source organism: Influenza A virus (A/Taiwan/2/2006(H1N1))
HLA-A*31:01 = test: as above
HLA-B*07:02 = test: as above
HLA-B*08:01 = test: as above
HLA-B*08:02 = test: as above
HLA-B*15:01 [3] = test: as above; conditions: source organism: Influenza A virus (A/Hong Kong/213/2003(H5N1))
HLA-B*15:09 = test: as above; conditions: source organism: Influenza A virus (A/Taiwan/2/2006(H1N1))
HLA-B*15:17 [4] = test: as above; conditions: source organism: Influenza A virus (A/Hong Kong/213/2003(H5N1))
HLA-B*27:05 = test: as above
HLA-B*57:01 = test: as above
HLA-B*58:01 = test: as above
HLA-A*02:06 = test: IEDB peptide-MHC binding, purified MHC/competitive/fluorescence; filed as Kd, often an IC50 or EC50 that approximates it; ≥ and ≤ were set here for values at or beyond the usual limits of such assays; conditions: source organism: Influenza A virus (A/X-31(H3N2))
HLA-A*68:02 [5] = test: as above; conditions: source organism: Influenza A virus (A/X-31(H3N2))
HLA-B*18:01 = test: as above
HLA-B*39:01 = test: as above; conditions: source organism: Influenza A virus (A/X-31(H3N2))
HLA-A*68:02 [6] = test: IEDB peptide-MHC binding, purified MHC/direct/fluorescence; filed as Kd, often an IC50 or EC50 that approximates it; ≥ and ≤ were set here for values at or beyond the usual limits of such assays; conditions: source organism: Vibrio parahaemolyticus
HLA-B*08:03 = test: as above; conditions: source organism: Vibrio parahaemolyticus RIMD 2210633
HLA-B*40:01 = test: as above; conditions: source organism: Vibrio parahaemolyticus
HLA-B*48:01 = test: as above; conditions: source organism: Vibrio parahaemolyticus
HLA-A*26:01 = test: IEDB peptide-MHC binding, purified MHC/competitive/fluorescence; filed as Kd, often an IC50 or EC50 that approximates it; ≥ and ≤ were set here for values at or beyond the usual limits of such assays; conditions: source organism: Vibrio parahaemolyticus RIMD 2210633
HLA-A*26:02 [7] = test: as above; conditions: source organism: Vibrio parahaemolyticus RIMD 2210633
HLA-A*26:03 [8] = test: as above; conditions: source organism: Vibrio parahaemolyticus RIMD 2210633
HLA-B*15:01 [9] = test: as above; conditions: source organism: Vibrio parahaemolyticus RIMD 2210633
HLA-B*15:17 [10] = test: as above; conditions: source organism: Vibrio parahaemolyticus RIMD 2210633
HLA-B*35:01 = test: as above; conditions: source organism: Vibrio parahaemolyticus RIMD 2210633
[11] = source organism: Influenza A virus (A/Hong Kong/213/2003(H5N1))
[12] = source organism: Influenza A virus (A/Taiwan/2/2006(H1N1))
[13] = source organism: Vibrio parahaemolyticus
[14] = source organism: Vibrio parahaemolyticus RIMD 2210633

Sequence: CFMYSDFHF
- Kd (HLA-A*01:01; [11]): ≥ 20000 nM
- Kd (HLA-A*02:01; [11]): 141 nM
- Kd (HLA-A*02:03): 307 nM
- Kd (HLA-A*02:11): 126 nM
- Kd (HLA-A*02:12): 243 nM
- Kd (HLA-A*02:19): 268 nM
- Kd (HLA-A*03:01; [11]): ≥ 20000 nM
- Kd (HLA-A*11:01; [11]): ≥ 20 µM
- Kd (HLA-A*23:01): ≤ 1 nM
- Kd (HLA-A*24:02): 21 nM
- Kd (HLA-A*24:03): 7.5 nM
- Kd (HLA-A*26:02 [1]): ≥ 20 µM
- Kd (HLA-A*26:03 [2]): ≥ 20 µM
- Kd (HLA-A*31:01; [11]): ≥ 20 µM
- Kd (HLA-B*07:02; [11]): ≥ 20 µM
- Kd (HLA-B*08:01; [12]): ≥ 20 µM
- Kd (HLA-B*08:02; [12]): ≥ 20 µM
- Kd (HLA-B*15:01 [3]): ≥ 20 µM
- Kd (HLA-B*15:09): ≥ 20 µM
- Kd (HLA-B*15:17 [4]): ≥ 20 µM
- Kd (HLA-B*27:05; [11]): ≥ 20 µM
- Kd (HLA-B*57:01; [11]): ≥ 20000 nM
- Kd (HLA-B*58:01; [11]): 74.5 nM
- Kd (HLA-A*02:06): 49.2 nM
- Kd (HLA-A*68:02 [5]): 210 nM
- Kd (HLA-B*18:01; source organism: Influenza A virus (A/X-31(H3N2))): 1990 nM
- Kd (HLA-B*39:01): ≥ 20 µM

Sequence: ILRPLGIEY
- Kd (HLA-A*01:01; [13]): 2020 nM
- Kd (HLA-A*02:01; [13]): ≥ 20000 nM
- Kd (HLA-A*03:01; [13]): 116 nM
- Kd (HLA-A*11:01; [13]): ≥ 20 µM
- Kd (HLA-A*31:01; [13]): ≥ 20 µM
- Kd (HLA-A*68:02 [6]): ≥ 20 µM
- Kd (HLA-B*07:02; [13]): ≥ 20 µM
- Kd (HLA-B*08:01; [14]): ≥ 20 µM
- Kd (HLA-B*08:02; [14]): ≥ 20 µM
- Kd (HLA-B*08:03): ≥ 20 µM
- Kd (HLA-B*27:05; [13]): ≥ 20 µM
- Kd (HLA-B*40:01): ≥ 20 µM
- Kd (HLA-B*48:01): ≥ 20 µM
- Kd (HLA-B*57:01; [13]): 1530 nM
- Kd (HLA-B*58:01; [13]): ≥ 20000 nM
- Kd (HLA-A*26:01): 478 nM
- Kd (HLA-A*26:02 [7]): 403 nM
- Kd (HLA-A*26:03 [8]): ≥ 20 µM
- Kd (HLA-B*15:01 [9]): 282 nM
- Kd (HLA-B*15:17 [10]): 48.8 nM
- Kd (HLA-B*18:01; [14]): 159 nM
- Kd (HLA-B*35:01): 226 nM
